Here are results for five molecules from paper PMC3226482 (Molecular Biology of the Cell, 2011).

First the molecules themselves.
T1: GST-Imp4 (human, UniProt Q8TEX9 1-1081)
T1 sequence: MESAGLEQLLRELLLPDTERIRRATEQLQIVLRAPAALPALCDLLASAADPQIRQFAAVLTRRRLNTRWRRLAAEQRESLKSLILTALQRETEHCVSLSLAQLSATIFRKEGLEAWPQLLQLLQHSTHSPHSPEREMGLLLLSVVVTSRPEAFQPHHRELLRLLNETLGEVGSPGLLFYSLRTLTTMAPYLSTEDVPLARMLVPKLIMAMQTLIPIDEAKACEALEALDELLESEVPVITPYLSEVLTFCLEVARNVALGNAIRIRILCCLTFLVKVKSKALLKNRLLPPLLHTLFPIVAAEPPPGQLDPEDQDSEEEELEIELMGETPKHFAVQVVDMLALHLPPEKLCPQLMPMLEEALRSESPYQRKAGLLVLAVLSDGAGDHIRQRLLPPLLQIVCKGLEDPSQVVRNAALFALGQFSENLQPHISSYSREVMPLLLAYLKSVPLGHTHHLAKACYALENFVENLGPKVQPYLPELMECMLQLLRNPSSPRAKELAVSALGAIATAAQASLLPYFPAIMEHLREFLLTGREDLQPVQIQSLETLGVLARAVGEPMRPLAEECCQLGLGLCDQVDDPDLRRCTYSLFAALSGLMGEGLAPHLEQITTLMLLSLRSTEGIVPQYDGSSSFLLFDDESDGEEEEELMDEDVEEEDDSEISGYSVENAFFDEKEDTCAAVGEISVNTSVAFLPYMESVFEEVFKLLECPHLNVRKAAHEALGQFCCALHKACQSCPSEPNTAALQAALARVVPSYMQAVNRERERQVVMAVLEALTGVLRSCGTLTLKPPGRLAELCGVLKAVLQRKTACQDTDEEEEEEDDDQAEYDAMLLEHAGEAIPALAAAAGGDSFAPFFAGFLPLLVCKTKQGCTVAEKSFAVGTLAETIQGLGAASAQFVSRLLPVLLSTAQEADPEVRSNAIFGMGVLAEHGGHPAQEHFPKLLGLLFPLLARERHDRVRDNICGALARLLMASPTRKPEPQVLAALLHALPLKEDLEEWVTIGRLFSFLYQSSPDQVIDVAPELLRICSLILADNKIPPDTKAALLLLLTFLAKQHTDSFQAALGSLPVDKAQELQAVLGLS

T2: GST-Imp11 (human, UniProt Q9UI26 1-975)
T2 sequence: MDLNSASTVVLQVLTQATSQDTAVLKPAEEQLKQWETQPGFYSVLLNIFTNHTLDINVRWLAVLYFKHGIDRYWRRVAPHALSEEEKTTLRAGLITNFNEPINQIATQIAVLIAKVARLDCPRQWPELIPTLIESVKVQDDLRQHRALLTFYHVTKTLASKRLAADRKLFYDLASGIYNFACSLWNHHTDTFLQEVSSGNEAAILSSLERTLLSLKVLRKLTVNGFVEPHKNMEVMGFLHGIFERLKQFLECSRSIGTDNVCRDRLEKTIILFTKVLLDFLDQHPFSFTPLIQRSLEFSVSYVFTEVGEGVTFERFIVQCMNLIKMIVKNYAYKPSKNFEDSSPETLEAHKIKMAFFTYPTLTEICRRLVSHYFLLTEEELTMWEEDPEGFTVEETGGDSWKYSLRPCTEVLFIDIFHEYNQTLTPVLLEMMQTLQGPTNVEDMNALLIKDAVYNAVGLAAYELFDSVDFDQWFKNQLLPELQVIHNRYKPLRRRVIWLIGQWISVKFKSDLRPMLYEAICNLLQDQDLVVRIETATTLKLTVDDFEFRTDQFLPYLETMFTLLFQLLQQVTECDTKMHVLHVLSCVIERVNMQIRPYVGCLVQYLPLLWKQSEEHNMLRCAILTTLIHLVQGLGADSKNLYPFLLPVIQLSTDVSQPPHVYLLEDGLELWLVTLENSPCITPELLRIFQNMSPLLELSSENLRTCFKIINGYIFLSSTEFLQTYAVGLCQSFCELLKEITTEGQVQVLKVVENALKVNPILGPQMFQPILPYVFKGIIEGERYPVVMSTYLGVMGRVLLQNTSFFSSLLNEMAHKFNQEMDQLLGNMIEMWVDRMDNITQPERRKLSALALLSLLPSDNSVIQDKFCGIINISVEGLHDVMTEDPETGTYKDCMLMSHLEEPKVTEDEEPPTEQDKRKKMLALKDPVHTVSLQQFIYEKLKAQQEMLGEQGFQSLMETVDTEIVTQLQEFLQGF

T3: karyopherin β2 (human, UniProt Q92973 1-898)
T3 sequence: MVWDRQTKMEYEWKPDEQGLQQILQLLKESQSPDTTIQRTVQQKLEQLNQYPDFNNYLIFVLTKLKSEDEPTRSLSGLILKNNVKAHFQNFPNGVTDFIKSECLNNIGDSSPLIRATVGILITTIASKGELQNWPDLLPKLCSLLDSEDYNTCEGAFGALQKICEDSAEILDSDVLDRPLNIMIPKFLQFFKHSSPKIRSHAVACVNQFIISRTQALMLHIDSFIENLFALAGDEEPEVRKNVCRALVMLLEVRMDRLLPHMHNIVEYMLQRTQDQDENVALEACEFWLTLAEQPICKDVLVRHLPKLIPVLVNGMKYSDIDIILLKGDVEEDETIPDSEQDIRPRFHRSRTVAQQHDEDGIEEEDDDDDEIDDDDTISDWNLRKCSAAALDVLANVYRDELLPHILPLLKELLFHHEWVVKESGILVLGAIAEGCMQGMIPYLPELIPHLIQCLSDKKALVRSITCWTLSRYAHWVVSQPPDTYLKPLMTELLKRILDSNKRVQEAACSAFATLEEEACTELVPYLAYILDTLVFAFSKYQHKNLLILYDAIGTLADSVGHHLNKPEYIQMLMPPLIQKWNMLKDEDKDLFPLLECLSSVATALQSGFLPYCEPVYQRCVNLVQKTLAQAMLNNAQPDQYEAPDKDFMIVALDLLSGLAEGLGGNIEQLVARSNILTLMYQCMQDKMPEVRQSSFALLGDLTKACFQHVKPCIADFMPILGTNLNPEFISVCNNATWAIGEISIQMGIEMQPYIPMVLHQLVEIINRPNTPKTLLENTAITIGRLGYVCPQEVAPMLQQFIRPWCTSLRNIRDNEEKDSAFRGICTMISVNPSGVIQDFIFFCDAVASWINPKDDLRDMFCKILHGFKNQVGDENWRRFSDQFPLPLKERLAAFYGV

T4: importin 11 (human, UniProt Q9UI26 1-975)
T4 sequence: T2 sequence

B1: MBP-hsNXF1-N (domain or fragment)
chain: MADEGKSYSEHDDERVNFPQRKKKGRGPFRWKYGEGNRRSGRGGSGIRSSRLEEDDGDVAMSDAQDGPRVRYNPYTTRPNRRGDTWHDRDRIHVTVRRDRAPPERGGAG
B2: MBP-hsNXF1-N(71-75/A) (domain or fragment)
chain: B1 chain with R71A, Y72A, N73A, P74A, Y75A
B3: MBP-hsNXF1-N(21-30/A) (domain or fragment)
chain: B1 chain with R21A, K22A, K23A, K24A, G25A, R26A, G27A, P28A, F29A, R30A
B4: importin 4 (natural protein)
chain: T1 sequence
B5: GST-hsNXF1 (full-length human NXF1) (natural protein)
chain: MADEGKSYSEHDDERVNFPQRKKKGRGPFRWKYGEGNRRSGRGGSGIRSSRLEEDDGDVAMSDAQDGPRVRYNPYTTRPNRRGDTWHDRDRIHVTVRRDRAPPERGGAGTSQDGTSKNWFKITIPYGRKYDKAWLLSMIQSKCSVPFTPIEFHYENTRAQFFVEDASTASALKAVNYKILDRENRRISIIINSSAPPHTILNELKPEQVEQLKLIMSKRYDGSQQALDLKGLRSDPDLVAQNIDVVLNRRSCMAATLRIIEENIPELLSLNLSNNRLYRLDDMSSIVQKAPNLKILNLSGNELKSERELDKIKGLKLEELWLDGNSLCDTFRDQSTYISAIRERFPKLLRLDGHELPPPIAFDVEAPTTLPPCKGSYFGTENLKSLVLHFLQQYYAIYDSGDRQGLLDAYHDGACCSLSIPFIPQNPARSSLAEYFKDSRNVKKLKDPTLRFRLLKHTRLNVVAFLNELPKTQHDVNSFVVDISAQTSTLLCFSVNGVFKEVDGKSRDSLRAFTRTFIAVPASNSGLCIVNDELFVRNASSEEIQRAFAMPAPTPSSSPVPTLSPEQQEMLQAFSTQSGMNLEWSQKCLQDNNWDYTRSAQAFTHLKAKGEIPEVAFMK

The target of one experiment is T1, GST-Imp4. The experiment is described as follows: pull-down.
For the next experiment, the target named is T2, GST-Imp11. The experiment can be described thus: pull-down.
The next experiment deals with T3, karyopherin β2. The experiment can be described thus: ITC.
The target of experiment [1] is T5, importin β (human, UniProt Q14974 1-876). The experiment can be described thus: ITC.
The target in experiment [2] is RanGTP (recombinant human Ran loaded with GTP) (human, UniProt P62826 1-216). The experiment is described as follows: pull-down.
In experiment [3] the target is T5, importin β. The experiment is described as follows: pull-down.
The experiment “importin 4” concerns the target B4. The experiment is described as follows: pull-down.
The next experiment addresses T4, importin 11. The experiment is described as follows: pull-down.

Substitutions are numbered along the chain they refer to.

Usually Kd stands for the equilibrium constant for the complex coming apart. Low values mean tighter binding, high ones weaker binding.

T5 sequence (Q14974 whole entry): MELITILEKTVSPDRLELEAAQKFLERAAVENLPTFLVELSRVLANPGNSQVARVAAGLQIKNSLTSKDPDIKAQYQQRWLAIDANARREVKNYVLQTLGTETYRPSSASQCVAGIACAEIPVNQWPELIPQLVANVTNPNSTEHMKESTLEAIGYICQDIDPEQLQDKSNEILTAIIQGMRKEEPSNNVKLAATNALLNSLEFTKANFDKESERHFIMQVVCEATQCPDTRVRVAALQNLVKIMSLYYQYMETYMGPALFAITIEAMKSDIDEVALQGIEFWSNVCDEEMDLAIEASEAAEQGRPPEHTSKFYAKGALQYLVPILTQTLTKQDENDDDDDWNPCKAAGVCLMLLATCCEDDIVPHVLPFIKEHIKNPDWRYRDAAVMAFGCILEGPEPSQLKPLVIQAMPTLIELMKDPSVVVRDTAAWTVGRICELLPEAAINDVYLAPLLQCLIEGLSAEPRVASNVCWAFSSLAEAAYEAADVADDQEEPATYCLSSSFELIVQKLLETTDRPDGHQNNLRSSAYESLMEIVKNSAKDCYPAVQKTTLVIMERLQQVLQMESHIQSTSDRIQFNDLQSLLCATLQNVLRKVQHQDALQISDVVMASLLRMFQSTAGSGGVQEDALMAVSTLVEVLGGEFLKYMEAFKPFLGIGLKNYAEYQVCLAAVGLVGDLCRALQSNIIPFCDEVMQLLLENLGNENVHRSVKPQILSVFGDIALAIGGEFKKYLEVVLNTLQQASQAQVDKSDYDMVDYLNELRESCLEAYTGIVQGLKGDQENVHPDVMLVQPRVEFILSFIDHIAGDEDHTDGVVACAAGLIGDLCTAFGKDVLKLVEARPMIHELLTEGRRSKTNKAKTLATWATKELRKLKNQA

As for B1, the binding result with GST-Imp4 is reported as “binds”. The binding result with GST-Imp11 is recorded as “binds”. For the same molecule, in the experiment with karyopherin β2, the Kd came out at 40.5 nM and the dH was -17.2 kcal/mol. Further, in the experiment with importin β [1], the “dH (two-site model, site 1)” value was -7.51 kcal/mol and the “dH (two-site model, site 2)” value was -4.6 kcal/mol.
In the case of B2, in the experiment with karyopherin β2, the Kd came out at 215 nM and the dH was -12.9 kcal/mol. Moreover, in the experiment with importin β [1], the “dH (two-site model, site 1)” value is -7.73 kcal/mol and the “dH (two-site model, site 2)” value is -3.28 kcal/mol.
As to B3, in the experiment with karyopherin β2, the equilibrium dissociation constant (Kd) came to 128 nM and the dH is -13.9 kcal/mol. In the experiment with importin β [1], this molecule had a Kd of 2230 nM and a dH of -2.48 kcal/mol.
Regarding B4, the binding result in experiment [2] is “binds”.
Consider B5, for which the binding result with importin β [3], with importin 4 and in the experiment with importin 11 was “binds” each time.
